According to patent publication US20250101126A1 (GO THERAPEUTICS, published 2025):

Tests used:
[1] = target: T1, MUC4-Tn glycopeptide CTIPSTAMHTRSTAAPIPILP (SEQ ID NO:154) with O-linked GalNAc on the serine and threonine … (not fully specified; O-linked GalNAc on Ser 12 and Thr 13; N-terminal biotin (Table 6); C-terminal amide in the form described in the SPR/BLI methods); assay: SPR (Biacore); antibody immobilized, peptide as analyte
T1 construct: Synthetic glycopeptide made by FMOC synthesis; also called MUC4 glycopeptide; Tn-glycosylated MUC4 peptide
T1 peptide: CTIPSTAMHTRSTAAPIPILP
From the text: Antibody affinity assays can be carried out using surface plasmon resonance (e.g., using a Biacore system (Cytiva)). In a surface plasmon resonance assay, one or more antibodies can be immobilized onto a biosensor and presented with an analyte (e.g., the glyco-MUC4 peptide […]-amide (the amino acid portion of which is SEQ ID NO:154; bold and underlined residues indicate GalNAc glycosylation sites) or a negative control analyte such as un unglycosylated MUC4 peptide ([…]-amide (the amino acid portion of which is SEQ ID NO:155)). The antibodies are contacted with different concentrations of the analyte, for example concentrations of 2.5 nM, 7.4 nM, 22 nM, 66 nM and 200 nM. Affinity is measured using multi-cycle kinetics in triplicate for each analyte concentration, with 1 min association and 5 min dissociation. […] The affinity is determined by fitting the binding curve to a specific model: kinetic fit (1:1 model) or if applicable heterogenous ligand binding model.

[2] = target: T1, MUC4-Tn glycopeptide …; assay: BLI (Octet), apparent affinity; peptide on biosensor; +/- error at 95% confidence; same value as Table 7
[3] = target: T1, MUC4-Tn glycopeptide …; assay: BLI (Octet), apparent affinity; peptide on biosensor; error +/- 0.251 nM at 95% confidence (r8c5)
MUC1-Tn [4] = assay: BLI (Octet), apparent affinity; peptide on biosensor; error +/- 5.9 µM (r8c9)
[5] = target: T1, MUC4-Tn glycopeptide …; assay: BLI (Octet), MUC4 glycopeptide on biosensor
[6] = target: T2, Tn-glycosylated MUC4 on cells (MUC4-Tn; COSMC-KO cells, cancer tissue) (UniProt Q99102 29-5412, limits assumed, truncated Tn O-glycans (GalNAc-alpha1-O-Ser/Thr), from knock-out of the COSMC chaperone or in cancer tissue); assay: flow cytometry on T3M4 COSMC-KO (T3M4-M) cells
T2 construct: whole, on cells; also called Tn-MUC4; glyco-MUC4
Method: Adherent cells were dissociated with TrypLE select (Gibco) and washed from flask surface with cell culture media (RPMI w/L-glutamine, 1% PenStrep, & 10% FBS). Cells were washed several times by centrifugation at 300*g for 5 min at 4° C. followed by resuspension in PBS with 1% BSA (PBS/1% BSA). Cells were resuspended between 5×10⁵ cells/ml to 2×10⁶ cell/ml and then distributed into a 96 well U-bottom plate. Diluted commercial antibody (0.25-2 ug/ml), or purified humanized 2D5 candidates were added to T3M4 COSMC-KO cells and incubated for 1 hr on ice. Following several washes with PBS/1% BSA, cells were incubated for 30 min on ice with a 1:1600 dilution of AlexaFluor647 conjugated F(ab)₂ goat anti-human IgG Fcγ (JacksonImmunoResearch). Cells were washed again with PBS/1% BSA and then fixed in 1% formaldehyde in PBS/1% BSA. Cells were analysed on either a 2 or 4 laser Attune NXT flow cytometer. Data was processed in FlowJo Software.

[7] = target: T3, MUC4-Tn(T) peptide Biotin-CTIPSTAMHTRSTAAPIPILP (SEQ ID NO:198) (GalNAc on a threonine only (by the label Tn(T); the bold/underline marking of the site is lost in the text); N-terminal biotin); assay: BLI (Octet), apparent affinity; peptide on biosensor; error printed as 1 pM (r10c7)
T3 construct: Singly glycosylated form of the MUC4 peptide
T3 peptide: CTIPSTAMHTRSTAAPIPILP

[8] = target: T1, MUC4-Tn glycopeptide …; assay: BLI (Octet), apparent affinity; peptide on biosensor; error +/- 2.32 nM (r10c5)
MUC1-Tn [9] = assay: BLI (Octet), apparent affinity; peptide on biosensor; error +/- 7.6 µM (r10c9)
[10] = target: T1, MUC4-Tn glycopeptide …; assay: BLI (Octet), apparent affinity; peptide on biosensor; error +/- 10 nM (r12c5)
MUC1-Tn [11] = assay: BLI (Octet), apparent affinity; peptide on biosensor; error +/- 3.7 µM (r12c9)
[12] = target: T3, MUC4-Tn(T) peptide …; assay: BLI (Octet), apparent affinity; peptide on biosensor; error +/- 66 µM (r12c7)

B1: 2D5.2F6.2C11 (antibody, V domains shown)
VH: QVQLQQSDAELVKPGASVRISCKAYGYTFTDHAIHWVKQKPEQGLEWLGYISPGNDDIQYNAKFKGKATLTADKSSSTAYMQLNSLTSDDSAVYFCKRSMANSFDYWGQGTTLTVSS
VL: NIMLTQSPSSLAVSAGEKVTMSCKSSQSVLYSSDQKNYLAWYQQKPGQSPKLLIYWASTRESGVPDRFTGSGSGTDFTLTISNVQAEDLAVYYCHQYLSSYTFGGGTKLEIK
notes: Murine monoclonal antibody from a hybridoma (Balb/c mice immunized with the KLH-conjugated Tn-MUC4 glycopeptide); also called mAb 2D5
Binder B1 has a Kd [1] of 3.96 nM, a Kd [2] of 2 nM and a Kd [3] of 2 nM. For the same binder, the Kd (MUC1-Tn [4]) was 2900 nM.

B2: 2D5-cAb Chimeric antibody (human Fc domain + murine variable domain) (antibody, V domains shown)
VH: QVQLQQSDAELVKPGASVRISCKAYGYTFTDHAIHWVKQKPEQGLEWLGYISPGNDDIQYNAKFKGKATLTADKSSSTAYMQLNSLTSDDSAVYFCKRSMANSFDYWGQGTTLTVSS
VL: NIMLTQSPSSLAVSAGEKVTMSCKSSQSVLYSSDQKNYLAWYQQKPGQSPKLLIYWASTRESGVPDRFTGSGSGTDFTLTISNVQAEDLAVYYCHQYLSSYTFGGGTKLEIK
B2 was tested, and the Kd [5] was 3.2 nM and the EC50 [6] was 0.0177 µg/mL.

B3: 5B8.2A11.2C7 (antibody, V domains shown)
VH: QVQLQQSDAELVKPGASVKISCKASGYTFTDHAIHWVKQKPEQGLEWIGYFSPGNGDIKYNEKFKGKATLTADRSSSTANMHLNSLTSEDSAVYFCKRSMANYFDYWGQGTTLTVSS
VL: NIMMTQSPSSLVVSAGEKVTMSCKSSHSVLYSSNQKNYLAWYQQKPGQSPKLLIYWASTKNSGVPDRFTGSGSGTDFTLTISSVQAEDLAVYYCHQYLSSYTFGGGTKLEIK
notes: Murine monoclonal antibody from a hybridoma; also called mAb 5B8
In the case of B3, the Kd [1] is reported as 3.93 nM, the Kd [7] is reported as 560 nM and the Kd [8] is reported as 2.32 nM. For the same binder, the Kd (MUC1-Tn [9]) was 2800 nM.

B4: 15F3.2D11.1E6 (antibody, V domains shown)
VH: QVQLQQSDAELVEPGASVKISCKAYGYTFTDHAIHWVKQKPEQGLEWLGYISPGNDDIQYNAKFKGRATLTADKSSSTAYMQLNSLTSDDSAVYFCKRSMANSFDFWGQGTTLTVSS
VL: NIMLTQSPSSLAVSAGEKVTMSCKSSQSVLYSSDQKNYLAWYQQKPGQSPKLLIYWASTRESGVPDRFTGSGSGTDFTLTISNVRAEDLAVYYCHQYLSSYTFGGGTKLEIK
notes: Murine monoclonal antibody from a hybridoma; also called mAb 15F3
B4 gave a Kd [1] of 3.56 nM, a Kd [10] of 50.2 nM and a Kd (MUC1-Tn [11]) of 2500 nM. For the same binder, the Kd [12] was 79000 nM.
